Experimental findings from PMC1885643 (Nucleic Acids Research, 2007) are described below.

The labels stand for the following.
T1: FLAG-hRad9 (human, UniProt Q99638 1-391)
T1 sequence (looked up): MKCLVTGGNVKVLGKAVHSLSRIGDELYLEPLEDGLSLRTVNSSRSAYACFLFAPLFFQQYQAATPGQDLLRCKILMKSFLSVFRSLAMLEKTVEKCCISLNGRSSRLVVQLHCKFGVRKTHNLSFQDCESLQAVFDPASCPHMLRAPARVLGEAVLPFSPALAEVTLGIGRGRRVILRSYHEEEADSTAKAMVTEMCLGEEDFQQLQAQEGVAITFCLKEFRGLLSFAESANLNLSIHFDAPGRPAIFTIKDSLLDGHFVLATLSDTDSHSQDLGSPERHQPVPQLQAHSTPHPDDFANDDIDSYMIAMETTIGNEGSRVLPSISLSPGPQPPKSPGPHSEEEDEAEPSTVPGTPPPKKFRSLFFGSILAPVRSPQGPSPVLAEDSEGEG

B1: GST-hHus1 (natural protein, human, UniProt O60921 1-280, looked up)
chain: MKFRAKIVDGACLNHFTRISNMIAKLAKTCTLRISPDKLNFILCDKLANGGVSMWCELEQENFFNEFQMEGVSAENNEIYLELTSENLSRALKTAQNARALKIKLTNKHFPCLTVSVELLSMSSSSRIVTHDIPIKVIPRKLWKDLQEPVVPDPDVSIYLPVLKTMKSVVEKMKNISNHLVIEANLDGELNLKIETELVCVTTHFKDLGNPPLASESTHEDRNVEHMAEVHIDIRKLLQFLAGQQVNPTKALCNIVNNKMVHFDLLHEDVSLQYFIPALS
B2: FLAG-hHus1 (natural protein, human, UniProt O60921 1-280, looked up)
chain: B1 chain
B3: His-tagged hHus1 (natural protein, human, UniProt O60921 1-280, looked up)
chain: B1 chain
B4: FLAG-hRad1 (natural protein, human, UniProt O60671 1-282, looked up)
chain: MPLLTQQIQDEDDQYSLVASLDNVRNLSTILKAIHFREHATCFATKNGIKVTVENAKCVQANAFIQAGIFQEFKVQEESVTFRINLTVLLDCLSIFGSSPMPGTLTALRMCYQGYGYPLMLFLEEGGVVTVCKINTQEPEETLDFDFCSTNVINKIILQSEGLREAFSELDMTSEVLQITMSPDKPYFRLSTFGNAGSSHLDYPKDSDLMEAFHCNQTQVNRYKISLLKPSTKALVLSCKVSIRTDNRGFLSLQYMIRNEDGQICFVEYYCCPDEEVPESES
B5: GST-hRad1 (natural protein, human, UniProt O60671 1-282, looked up)
chain: B4 chain

Where two headings read alike, the source gives them in different places.

The target in experiment [1] is T2, processed intact hNEIL1 (residues 2–390) (human, UniProt Q96FI4 2-390). Put plainly: pull-down.
T2 sequence (Q96FI4 2-390): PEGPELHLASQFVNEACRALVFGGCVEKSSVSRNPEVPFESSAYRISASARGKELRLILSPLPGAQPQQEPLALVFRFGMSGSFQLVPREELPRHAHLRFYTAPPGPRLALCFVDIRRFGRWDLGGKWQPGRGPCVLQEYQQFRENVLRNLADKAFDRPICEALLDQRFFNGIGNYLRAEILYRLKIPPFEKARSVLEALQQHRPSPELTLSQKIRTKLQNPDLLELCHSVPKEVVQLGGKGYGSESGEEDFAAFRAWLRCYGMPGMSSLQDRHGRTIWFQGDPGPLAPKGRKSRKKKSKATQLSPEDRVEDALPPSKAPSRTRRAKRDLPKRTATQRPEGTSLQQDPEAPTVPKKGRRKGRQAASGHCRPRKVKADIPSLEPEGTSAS
Experiment [2] has as its target T3, hNEIL1-CΔ40 (residues 2–350) (human, UniProt Q96FI4 2-350). The experiment is described as follows: pull-down.
Experiment [3] deals with GST-hNEIL1 (residues 1–390) (human, UniProt Q96FI4 1-390). Put plainly: pull-down.
Sequence of GST-hNEIL1 (residues 1–390) (Q96FI4 whole entry, the tested form may be a part): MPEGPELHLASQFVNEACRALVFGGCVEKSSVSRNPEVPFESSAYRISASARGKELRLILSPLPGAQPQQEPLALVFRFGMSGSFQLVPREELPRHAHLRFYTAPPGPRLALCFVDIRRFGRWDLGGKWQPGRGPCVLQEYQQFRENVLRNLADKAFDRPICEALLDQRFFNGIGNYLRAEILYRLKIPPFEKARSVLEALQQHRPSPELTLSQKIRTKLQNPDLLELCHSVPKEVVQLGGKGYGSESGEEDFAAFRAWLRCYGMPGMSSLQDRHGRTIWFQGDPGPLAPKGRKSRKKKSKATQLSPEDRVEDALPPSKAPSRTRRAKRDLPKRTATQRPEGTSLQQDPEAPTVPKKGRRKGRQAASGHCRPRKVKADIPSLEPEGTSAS
The experiment “FLAG-hRad1” addresses B4. The experiment is described as follows: SEC.
The target in another experiment is T1, FLAG-hRad9. The experiment is described as follows: SEC.
For experiment [4], the target named is T2, processed intact hNEIL1 (residues 2–390). Put plainly: pull-down. This is another data set of the same source.
In experiment [5] the target is T3, hNEIL1-CΔ40 (residues 2–350). Put plainly: pull-down. This is another data set of the same source.

T3 sequence (Q96FI4 2-350, stated change not applied): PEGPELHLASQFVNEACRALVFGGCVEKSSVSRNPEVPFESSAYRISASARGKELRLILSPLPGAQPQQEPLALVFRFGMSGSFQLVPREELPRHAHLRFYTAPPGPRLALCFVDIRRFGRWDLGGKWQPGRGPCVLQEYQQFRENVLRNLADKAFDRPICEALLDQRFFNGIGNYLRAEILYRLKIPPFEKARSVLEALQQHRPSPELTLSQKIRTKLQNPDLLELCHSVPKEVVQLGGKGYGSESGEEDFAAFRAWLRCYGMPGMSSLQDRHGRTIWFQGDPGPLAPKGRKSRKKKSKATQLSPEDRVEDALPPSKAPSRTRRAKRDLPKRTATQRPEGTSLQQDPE

B1: the binding result in experiment [1] and in experiment [2] was “binds” throughout.

In the case of B2, the binding result (in experiment [3]; with FLAG-hRad1; in the experiment with FLAG-hRad9) was “binds” in each case.

B3: the binding result in experiment [4] and in experiment [5] was “binds” throughout.

As to B4, the binding result (in experiment [3]; with FLAG-hRad9) was “binds” throughout.

Take B5: the binding result in experiment [1] and in experiment [2] was “binds” in each case.
